Here are results for 24 molecules from patent publication US20250361288A1 (Gilead, published 2025).

Numbering of substitutions follows the chain as printed. Names may count otherwise.

Assay [1] concerns the target T1, mouse LTβR extracellular domain fused with an Fc fragment at the C-terminus (mouse, UniProt P50284 31-223).
T1 construct: extracellular domain; Bought; also called mLTβR; not shown: Fc fragment at the C-terminus
The assay is described as follows: phage ELISA. On the procedure:
(§1) Individual clones from the fourth selection round were grown in 96-well deep well blocks in 100 μl of 2YT broth supplemented with 50 μg/ml ampicillin at 37° C. and 220 rpm for 5 hours. Then, 5 μl of helper phages were added to each well and incubated at 37° C. for 30 minutes. After centrifuging at 3,000 rpm for 10 minutes, the cells were resuspended and grown overnight in 150 μl/well of 2YT broth supplemented with 50 μg/ml ampicillin and 50 μg/ml kanamycin.
(§2) For the ELISA screening, 96-well ELISA plates were coated with target proteins (1 μg/ml in PBS) at 4° C. overnight and then blocked with 2% BSA for 2 hours at room temperature. The supernatant containing phage particles was added to the plates and incubated at room temperature for 1 hour. After incubation, the plates were washed five times with PBST. HRP (horseradish peroxidase) conjugated anti-M13 antibody (Sino Biological, China) was added to the wells and incubated at room temperature for 1 hour. Following another round of washing five times with PBST, 50 μl of TMB (3,3′, 5,5″-tetramethylbenzidine, #34029, ThemoFisher) was added to each well. After 5 minutes, the reaction was stopped by adding 50 μl stop solution (#C1058, Solarbio, China). The absorbance at 450 nm (OD450) was measured using a plate reader (SpectraMax M5, Molecule Devices). Wells coated with BSA were used as negative controls. Phage clones with an ELISA score ratio (target/BSA)>3 were considered positive clones.

Assay [2] deals with T2, mouse HVEM extracellular domain fused with an Fc fragment at the C-terminus (mouse, UniProt Q80WM9 39-206, limits assumed).
T2 construct: extracellular domain; Bought; also called mHVEM; not shown: Fc fragment at the C-terminus
T2 sequence (looked up): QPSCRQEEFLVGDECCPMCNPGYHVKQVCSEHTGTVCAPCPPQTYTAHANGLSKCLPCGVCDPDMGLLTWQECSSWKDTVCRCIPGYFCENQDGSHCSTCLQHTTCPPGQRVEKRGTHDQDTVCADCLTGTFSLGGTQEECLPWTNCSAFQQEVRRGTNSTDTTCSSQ
Nature of the assay: phage ELISA. The method, then: as §1, §2

The target of assay [3] is T3, human HVEM extracellular domain fused with an Fc fragment at the C-terminus (human, UniProt Q92956 39-202).
T3 construct: extracellular domain; Bought; also called hHVEM; not shown: Fc fragment at the C-terminus
T3 sequence (looked up): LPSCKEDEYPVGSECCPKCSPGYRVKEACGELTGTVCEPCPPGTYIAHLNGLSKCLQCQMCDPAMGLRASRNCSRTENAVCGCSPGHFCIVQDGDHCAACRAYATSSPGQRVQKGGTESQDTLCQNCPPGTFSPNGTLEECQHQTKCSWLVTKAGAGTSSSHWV
The assay is described as follows: phage ELISA. The method, then:
as §1, §2
For orientation: An ELISA detects its analyte on a solid surface through an enzyme-linked reagent.

Assay [4] deals with T4, human LTβR extracellular domain fused with an Fc fragment at the C-terminus (human, UniProt P36941 31-227).
T4 construct: extracellular domain; Bought; also called hLTβR; not shown: Fc fragment at the C-terminus
Nature of the assay: phage ELISA. On the procedure: as §1, §2

In assay [5] the target is T1, mouse LTβR extracellular domain fused …. Nature of the assay: ELISA on coated target-Fc. On the procedure: (§3) Nunc MaxiSorp 96-well plates (Thermofisher) were coated with target proteins (1 μg/ml), and then blocked with 2% BSA-PBS buffer for one hour. Serial dilutions of the LIGHT muteins were added with a maximum concentration of 200 ng/ml. The plates were incubated for one hour, washed four times with PBST, and then incubated with mouse anti-His tag antibody (#105327, Sino Biological) for 1 hour. The plates were further incubated with HRP-conjugated goat anti-mouse secondary antibody (#SSA006, Sino Biological) before being washed three times with PBST and treated with TMB substrate (#34029, ThermoFisher). The plates were read at 450 nm on a SpectraMax M5 microplate reader (Molecule Devices). The ELISA results were analyzed using GraphPad Prism 9.0 software and the EC50s (half maximal effective concentration) were summarized in Table 5-1 and Table 5-2.

The target of assay [6] is T4, human LTβR extracellular domain fused …. The assay is described as follows: ELISA on coated target-Fc. The method, then: as §3

T1 sequence (P50284 31-223): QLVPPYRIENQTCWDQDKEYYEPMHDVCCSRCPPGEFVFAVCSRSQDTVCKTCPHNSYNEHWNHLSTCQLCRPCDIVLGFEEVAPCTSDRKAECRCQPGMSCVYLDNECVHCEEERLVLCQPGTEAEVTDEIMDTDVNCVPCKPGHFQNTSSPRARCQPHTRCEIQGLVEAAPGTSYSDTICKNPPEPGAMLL
T4 sequence (P36941 31-227): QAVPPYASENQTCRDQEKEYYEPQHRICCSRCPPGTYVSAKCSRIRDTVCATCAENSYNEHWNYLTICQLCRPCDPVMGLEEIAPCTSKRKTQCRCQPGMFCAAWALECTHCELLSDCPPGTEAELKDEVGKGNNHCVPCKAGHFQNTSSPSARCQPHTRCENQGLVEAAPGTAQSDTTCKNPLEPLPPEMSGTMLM

B1: LIGHT-4 (ligand)
chain: DGPAGSWEQLIQERRSHEVNPAAHLTGANSSLTGSGGPLLWETQLGLAFLRGLSYHDGALVVTKAGYYYIYSKVQLGGMGCPLGLASPITHGLYKRTPRYPEELELLVSQQSPCGRATSSSRVWWDSSFLGGVVHLEAGEKVVVRVLDERLVRLLDGTRSYFGAFMV
notes: Printed mutations: V152M, T161P, R228L; Soluble protein carries an N-terminal His tag
Regarding B1, the binding result was “binds” in assay [1], “binds” in assay [2], “no binding” in assay [3] and “binds” in assay [4].

B2: LIGHT-80 (ligand)
chain: B1 chain with Q44N, M79V, S87G, P88G, L147S, E149S, L154T, L155R
notes: Printed mutations: Q117N, S160G, T161G, L220S, E222S, L227T; Soluble protein carries an N-terminal His tag
Consider B2, for which the binding result in assay [1], in assay [3] and in assay [4] was “binds” each time.

B3: LIGHT-45 (ligand)
chain: B1 chain with G77S, M79V, S87P, P88S, L147S, R150H, L155R
notes: Printed mutations: G150S, S160P, T161S, L220S, R223H; Soluble protein carries an N-terminal His tag
Consider B3, for which the half-maximal effective concentration (EC50) in assay [5] is 0.0264 µg/mL; in assay [6], 0.0362 µg/mL. The binding result in assay [2] was “binds”.

B4: LIGHT-41 (ligand)
chain: B1 chain with G77R, M79V, S87G, P88T, L147S, L155R
notes: Printed mutations: G150R, S160G, L220S; Soluble protein carries an N-terminal His tag
For B4, the figures for the 50% effective concentration (EC50) in assay [5] and in assay [6] were 0.0311 µg/mL and 0.108 µg/mL, respectively. Moreover, the binding result in assay [2] is “binds”.

B5: LIGHT-43 (ligand)
chain: B1 chain with G77R, M79V, S87T, P88T, L147S, L155R
notes: Printed mutations: G150R, S160T, L220S; Soluble protein carries an N-terminal His tag
Turning to B5, the binding result in assay [1], in assay [2], in assay [3] and in assay [4] was “binds” each time.

B6: LIGHT-51 (ligand)
chain: B1 chain with A28D, M79V, S87N, P88T, L147S, L155R
notes: Printed mutations: A101D, S160N, L220S; Soluble protein carries an N-terminal His tag
As for B6, the binding result in assay [1], in assay [2], in assay [3] and in assay [4] was “binds” throughout.

B7: LIGHT-79 (ligand)
chain: B1 chain with Q44E, M79V, S87G, P88S, L147S, L154T, L155R
notes: Printed mutations: Q117E, S160G, T161S, L220S, L227T; Soluble protein carries an N-terminal His tag
Regarding B7, the binding result in assay [1], in assay [3] and in assay [4] was “binds” throughout.

B8: LIGHT-83 (ligand)
chain: B1 chain with Q44E, M79V, S87G, L147S, E149S, L154T, L155R
notes: Printed mutations: Q117E, S160G, T161P, L220S, E222S, L227T; Soluble protein carries an N-terminal His tag
Consider B8, for which the binding result in assay [1], in assay [3] and in assay [4] was “binds” throughout.

B9: LIGHT-74 (ligand)
chain: B1 chain with Q44N, M79V, S87G, P88G, L147S, L154T, L155R
notes: Printed mutations: Q117N, S160G, T161G, L220S, L227T; Soluble protein carries an N-terminal His tag
On to B9, for which the binding result in assay [1], in assay [3] and in assay [4] was “binds” throughout.

B10: LIGHT-11 (ligand)
chain: B1 chain with G77S, M79V, P88T, L147S, L155R
notes: Printed mutations: G150S, L220S; Soluble protein carries an N-terminal His tag
On to B10, for which the values for the EC50 in assay [5] and in assay [6] were 0.0233 µg/mL and 0.0395 µg/mL, respectively. Further, the results for the binding result in assay [2] and in assay [3] were “binds” and “no binding”, respectively.

B11: LIGHT-44 (ligand)
chain: B1 chain with G77R, M79V, L85P, P88T, L147S, L155R
notes: Printed mutations: G150R, L158P, L220S; Soluble protein carries an N-terminal His tag
For B11, the binding result in assay [1], in assay [2], in assay [3] and in assay [4] was “binds” in each case.

B12: LIGHT-49 (ligand)
chain: B1 chain with L32P, Q44R, M79V, P88T, L147Q, L155R
notes: Printed mutations: L105P, Q117R, L220Q; Soluble protein carries an N-terminal His tag
Turning to B12, the binding result in assay [1], in assay [2], in assay [3] and in assay [4] was “binds” throughout.

B13: LIGHT-77 (ligand)
chain: B1 chain with Q44E, M79V, S87G, L147S, L154T, L155R
notes: Printed mutations: Q117E, S160G, T161P, L220S, L227T; Soluble protein carries an N-terminal His tag
As for B13, the binding result in assay [1], in assay [3] and in assay [4] was “binds” in each case.

B14: LIGHT-13 (ligand)
chain: B1 chain with S31P, M79V, G84S, P88T, H135Y, L147R, L155R
notes: Printed mutations: S104P, G157S, H208Y, L220R; Soluble protein carries an N-terminal His tag
For the molecule B14, the binding result in assay [1], in assay [2], in assay [3] and in assay [4] was “binds” in each case.

B15: LIGHT-8 (ligand)
chain: B1 chain with G77S, M79V, S87G, P88T, L147S, L155R
notes: Printed mutations: G150S, S160G, L220S; Soluble protein carries an N-terminal His tag
Take B15: the binding result was “binds” in assay [1], “binds” in assay [2], “no binding” in assay [3] and “binds” in assay [4].

B16: LIGHT-82 (ligand)
chain: B1 chain with Q44E, M79V, S87G, P88G, L147S, E149S, L154T, L155R
notes: Printed mutations: Q117E, S160G, T161G, L220S, E222S, L227T; Soluble protein carries an N-terminal His tag
On to B16, for which the binding result in assay [1], in assay [3] and in assay [4] was “binds” throughout.

B17: LIGHT-50 (ligand)
chain: B1 chain with N29R, L47Q, M79V, P88T, H135R, K141E, L155R
notes: Printed mutations: N102R, L120Q, H208R, K214E; Soluble protein carries an N-terminal His tag
For B17, the binding result in assay [1], in assay [2], in assay [3] and in assay [4] was “binds” in each case.

B18: LIGHT-85 (ligand)
chain: B1 chain with Q44E, M79V, S87G, P88S, L147S, E149S, L154T, L155R
notes: Printed mutations: Q117E, S160G, T161S, L220S, E222S, L227T; Soluble protein carries an N-terminal His tag
For B18, the binding result in assay [1], in assay [3] and in assay [4] was “binds” throughout.

B19: LIGHT-6 (ligand)
chain: B1 chain with M79V, P88T, W125Q, L147N, D148G, L155R
notes: Printed mutations: W198Q, L220N, D221G; Soluble protein carries an N-terminal His tag
With B19, the binding result in assay [1] was “binds”; in assay [2], “binds”; in assay [3], “no binding”; in assay [4], “binds”.

B20: LIGHT-78 (ligand)
chain: B1 chain with Q44N, M79V, S87G, P88S, L147S, L154T, L155R
notes: Printed mutations: Q117N, S160G, T161S, L220S, L227T; Soluble protein carries an N-terminal His tag
Turning to B20, the binding result in assay [1], in assay [3] and in assay [4] was “binds” each time.

B21: LIGHT-75 (ligand)
chain: B1 chain with Q44N, M79V, S87G, L147S, L154T, L155R
notes: Printed mutations: Q117N, S160G, T161P, L220S, L227T; Soluble protein carries an N-terminal His tag
On to B21, for which the binding result in assay [1], in assay [3] and in assay [4] was “binds” in each case.

B22: LIGHT-81 (ligand)
chain: B1 chain with Q44N, M79V, S87G, L147S, E149S, L154T, L155R
notes: Printed mutations: Q117N, S160G, T161P, L220S, E222S, L227T; Soluble protein carries an N-terminal His tag
Turning to B22, the binding result in assay [1], in assay [3] and in assay [4] was “binds” throughout.

B23: LIGHT-9 (ligand)
chain: B1 chain with G77S, M79V, P88G, L147S, L155R
notes: Printed mutations: G150S, T161G, L220S; Soluble protein carries an N-terminal His tag
Consider B23, for which the concentration giving a half-maximal response (EC50) in assay [5] was found to be 0.0224 µg/mL; in assay [6], 0.0282 µg/mL. Further, the binding result in assay [2] was “binds”; in assay [3] it was “no binding”.

B24: LIGHT-38 (ligand)
chain: B1 chain with M79V, P88T, Q111R, W125Q, L155R
notes: Printed mutations: Q184R, W198Q; Soluble protein carries an N-terminal His tag
For B24, the binding result in assay [1], in assay [2], in assay [3] and in assay [4] was “binds” each time.

As usually defined, the EC50 is the concentration at which the effect is half-maximal.
